# The nanobody polyreactivity screen of Harvey et al. (2022)
# Test: yeast display, Sf9 membrane polyspecificity reagent, FACS + sequencing; frameworks hold sequencing errors
# Outline: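 A nanobody's polyreactivity label depends on the gate it was sorted from. Yeast display cells were stained with 10% biotinylated, detergent-solubilized Sf9 membrane reagent for 1 hour at 4 °C, enriched on streptavidin microbeads and sorted by FACS. The low and high (top ~1%) gates were set on anti-HA fluorescence for expression and streptavidin fluorescence for reagent binding.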
row,Sequence,polyreactivity (PSR sort gate)
1,QVQLVESGGGLVQAGGSLRLSCAASGFIFSRYAMGWYRQAPGKERELVAAITSGGGTYSADSVKGRFTISRDNAKNTVYLQMNSLKPEDTAVYYCAAGYGPTSTSSVRITAGDHWGQGTQVTVSS,low polyreactivity
2,QVQLVESGGGLVQAGGSLRLSCAASGFIFSRYAMGWYRQAPGKERELVASISWGGGSTSYADSVKGRFTISRDNAKNTVYLQMNSLKPEDTAVYYCNARVRSHRFNYWGQGTQVTVSS,high polyreactivity
3,QVQLVESGGGLVQAGGSLRLSCAASGFIFSRYVMGWYRQAPGKERELVAAISSSGGRTYYADSVKGRFTISRDNAKNTVYLQMNCLKPEDTAVYYCAAKPLPGGADTTSPRYDYWGQGTQVTVSS,high polyreactivity
4,QVQLVESGGGLVQAGGSLRLSCAASGFIFSSIAMGWYRPAPGKEREFVAAITSGGITYYADSLKGRFTISRDNAKNTVYLQMNSLKPEDTAVYYCAAVLSYQTPKYYRWRYGYWGQGTQVTVSS,low polyreactivity
5,QVQLVESGGGLVQAGGSLRLSCAASGFIFSSNAMGWYRQAPGKEREFVAAISFRGGTTYYADSVKGRFTISRDNAKNTVYLQMKSLKPEDTAVYYCNAVRWRSGRWWWYDYWGQGTQVTVSS,low polyreactivity
6,QVQLVESGGGLVQAGGSLRLSCAASGFIFSSNAMGWYRQAPGKERELVARITWSDGSTYYADSVKGRFTISRDNAKNTVYLQMNSLKPEDTAVYYCAKGRDATHYEYYLYSMDYWGQGTQVTVSS,low polyreactivity
7,QVQLVESGGGLVQAGGSLRLSCAASGFIFSSYALGSYRQAPGKERELVAAIDLSGDSTYYADSVKGLFTISRDNAKNTVYLQMNSVKPEDTAVYYCAAQYYDYWYDSDYWGQGTQVTVSS,high polyreactivity
8,QVQLVESGGGLVQAGGSLRLSCAASGFIFSSYAMGWYRQAPGKERELVAAISRSGGRTNYADSVKGRFTISRDNAKNTVYLQMNSLKPEDTAVYYCAAGRWWVYRYARYYYWGQGTQVTVSS,high polyreactivity
9,QVQLVESGGGLVQAGGSLRLSCAASGFIFSSYAMGWYRQAPGKERELVAAISRSGGRTYYADSVKGRFTISRDNAKNTVYLQMNSLKPEDTAVYYCAAKRWWQYYWGQGTQVTVSS,high polyreactivity
10,QVQLVESGGGLVQAGGSLRLSCAASGFIFSSYAMGWYRQAPGKERELVAVITRSGRRTYYADSVKGRFTISRDNAKNTVYLQMNSLKPEDTAVYYCNATLPNEVAPNDYWGQGTQVTVSS,high polyreactivity
11,QVQLVESGGGLVQAGGSLRLSCAASGFIFSSYGMGWYRQAPGKERELVADISGGGSTNYADSVKGRFTISRDNAKNTVYLQMNSLKPEDTAVYYCNAQLIRSAAYDYWGQGTQVTVSS,low polyreactivity
12,QVQLVESGGGLVQAGGSLRLSCAASGFIFSTYAMGWYRQAPGKERELVAAITNSGGSTYYADSVKGRFTISRDNAKNTVYLQMNSLKPEDTAVYYCARRRSYRDNYWGQGTQVTVSS,high polyreactivity
13,QVQLVESGGGLVQAGGSLRLSCAASGFIFSWYDMGWYRQAPGKERELVAAISYSGSNTYYADSVKGRFTISRDNAKNTVYLQMNSLKPEDTAVYYCAATLGSRWAIYDYWGQGTQVTVSS,high polyreactivity
14,QVQLVESGGGLVQAGGSLRLSCAASGFIFSYNAMGWYRQAPGKERELVATITRRGGGTTYADSVKGRFTISRDNAKNTVYLQMNSLKPEDTAGYYCNRDDNRKHSFGSVGYDYWGQGTQVTVSS,low polyreactivity
15,QVQLVESGGGLVQAGGSLRLSCAASGFIFSYYAMGWYRPAPGKEREFVAAISRRGGSTYYADSVKGRFTISRDNAKNTVYLQMNSLKPEDTAVFYCARRRTSTAVREHYYRDWYGYDFWGQGTQVTVSS,high polyreactivity
16,QVQLVESGGGLVQAGGSLRLSCAASGFIFSYYAMGWYRQAPGKERELVAAINWSGGSTYYADSVKGRFTISRDNAKNTVYLQMNSLKPEDTAVYYCAAYSSWHPYDYWGQGTQVTVSS,high polyreactivity
17,QVQLVESGGGLVQAGGSLRLSCAASGFIFSYYAMGWYRQAPGKERELVAAISGRGGSTYYADSVKGRFTISRDNAKNTVYLQMNSLQPEDTAVYYCAADSPWGGGYFVLYNYWGQGTQVTVSS,low polyreactivity
18,QVQLVESGGGLVQAGGSLRLSCAASGFIFSYYAMGWYRQAPGKERELVAAISGSGGSTYYADSVKGRFTISRDNAKNTVYLQMNSLKPEDTAVYYCAAVSSYSRVYYWGQGTQVTVSS,high polyreactivity
19,QVQLVESGGGLVQAGGSLRLSCAASGFIFSYYAMGWYRQAPGKERELVAAITVTGGNTYYADSVKGRFTISRDNAKNTVYLQMNSLKPEDTAVYYCAAVVRGPGVSVYYWGQGTQVSVSS,low polyreactivity
20,QVQLVESGGGLVQAGGSLRLSCAASGFIFSYYAMGWYRQAPVKERELVAAISSSGGTTYADSVKGRFTISRDNAKNTFYLQMNSLKPEDTAVYYCARVQYWFYKPMYYWGQGTQVTVSS,high polyreactivity
21,QVQLVESGGGLVQAGGSLRLSCAASGFIFSYYTMGWYRQAPGKEWEVVAAIRSSGGSTYADSVKGRFTISRDNAKNTVYLQKNSLKPEDTAVYYCAAVQTWRWVYARDYWGQGTQVTVSS,high polyreactivity
22,QVQLVESGGGLVQAGGSLRLSCAASGFIFSYYVMGWYRQAPGKERELVAGISWNGGRTYYADSVKGRFTISRDNAKNTVYFQMNSLKPEDTAVYYCAKDPYSKRRASSGYDYWGQGTQVTVSS,low polyreactivity

row,Sequence,polyreactivity (PSR sort gate)
1,QVQLVESGGGLVQAGGSLRLSCAASGFIFSYYVMGWYRQAPGKERELVASISARVGSTYYADSVKGRFTISRDNAKNTVYLQMNSLKPEDTAVYYCNTARVKYRWYNYWGQGTQVTVSS,high polyreactivity
2,QVQLVESGGGLVQAGGSLRLSCAASGFIFTDNAMGWYRQAPGKDREFVAAITYSGGSTYYADSVKGRFTISRDNAKNTVYFQMNSLKPVDTAVYYCNKDVFPAPGGVTAYEYEYWGQGTQVTVSS,low polyreactivity
3,QVQLVESGGGLVQAGGSLRLSCAASGFIFTDYAMGWYRQAPGKEREFVAAIDWSGGNTYYADSVKGRFTISRDNAKNTVYLLMNSLKPEDTAVYYCADSGSAREYDYWGQGTQVTVSS,low polyreactivity
4,QVQLVESGGGLVQAGGSLRLSCAASGFIFTGNAMGWYRQAPGKERELVAAITQSGGHTSYADSVKGRFTISRDNAKNTVYLQMNSLKPEDTAVYYCNAEYTWPYHGVRNGWFNFKYEYWGQGTQVTVSS,low polyreactivity
5,QVQLVESGGGLVQAGGSLRLSCAASGFIFTGYAMGWYRPAPRKERELVAAITKSGGSTYYADSVKGRFTISRDNAKNTVYLQMNSLKPEDTAVYYFNTYVWRWSKGGYWGHGTQVTVSS,high polyreactivity
6,QVQLVESGGGLVQAGGSLRLSCAASGFIFTGYAMGWYRQAPGKERELVAAISRRGGSTYYADSVKGRFTISRDNAKNTVYLQMNSLKPEDTAVYYCAARTRTNGFDDWGQGTQVTVSS,high polyreactivity
7,QVQLVESGGGLVQAGGSLRLSCAASGFIFTKYTKGWYRPAPGTERELVAAIRSDGVRTYYADSVKGRFTISRDNAKNTVYLQMNSLKPEDTAVYYCAAYKAVPHYYYWGQGTQVTVSS,high polyreactivity
8,QVQLVESGGGLVQAGGSLRLSCAASGFIFTKYTMGWYRQAAGKVRELVAAIDSGGNTYADSVKGRFTISRDNAKNTVYLHMNSLKPEDTAVYYCAVDGGEFSSYGYWGQGTQVTVSS,low polyreactivity
9,QVQLVESGGGLVQAGGSLRLSCAASGFIFTKYTMGWYRQAPGKERELVAAITGRGTSTYADSVKGRFTISRDNAKNTVYLQMNSLKPEDTAVYYCAAVGWFADFLFSDINGYYWGQGTQVTVSS,low polyreactivity
10,QVQLVESGGGLVQAGGSLRLSCAASGFIFTLYTMGWYRPAPGKERELVAAISGRGGYTYYADSVKGRFTISRDNAKNTVYLHMNSLKPEDTAVYYCARAAYGFRARSGGDYWGQGTQVTVSS,high polyreactivity
11,QVQLVESGGGLVQAGGSLRLSCAASGFIFTNYAIGWYRQAPGKVRELVATISSGGGSTYYADSVKGRFTISRDNAKNTVYLQMNSLKQEDTAVYYCAASRRITGIRYINRYEYWGQGTQVTVSS,high polyreactivity
12,QVQLVESGGGLVQAGGSLRLSCAASGFIFTNYAMGWYRQAPGKERELVAAITRRGGGTYYADSVKGRFTISRDNAKNTVYLQMNSLKPEDTAVYYCAKYSRLVTANDYDYWGQGTQVTVSS,high polyreactivity
13,QVQLVESGGGLVQAGGSLRLSCAASGFIFTPYTMGWYRQAPGKERELVAAITDGSSTYYADSVKGRFTISRDNAKNTVYLQMNSLKPEDTAVYYCNADGKPPYISWLYDYWGQGTQVTVSS,low polyreactivity
14,QVQLVESGGGLVQAGGSLRLSCAASGFIFTRYAMGWYRQAPGKERELVARISGGGGSTYYADSVKGRFTISRDNAKNTVYLQMNSLKPEDTAVYYCNARWYPYISRYGIEARYDYWGQGTQVTVSS,high polyreactivity
15,QVQLVESGGGLVQAGGSLRLSCAASGFIFTTYAMGWYRQAPGKERELVAAISSSGTTYYADSVKGRFTISRDNAKNTVYLQMNSLKPEDTAVYYCAARRQFRSYQQRLYYWGQGTQVTVSS,low polyreactivity
16,QVQLVESGGGLVQAGGSLRLSCAASGFIFTTYAMGWYRQAPGKERELVAAISYRTGRTFYADSVKGRFTISRDNAKNTVYLQMNSLKPEDTAVYYCAAGTIQTVTTYWWTYRIGLGYWGQGTKVTVSS,high polyreactivity
17,QVQLVESGGGLVQAGGSLRLSCAASGFIFTTYAMGWYRQEPGTERELVAAISGRGGTTYYADSVKGRFTISRDNAKNTVYLQMNSMKPEDTAVYYCAADGYPGDDYWGQGTQVTVSS,high polyreactivity
18,QVQLVESGGGLVQAGGSLRLSCAASGFIFTVYALGWYRQAPVKERELVATITGTGDTNYADSVKGRFTISRDNAKNTVYLQMNSLKPEDTAVYYCAVSPRVPFRKPVLTPYNMYYWGQGTQVTVSS,high polyreactivity
19,QVQLVESGGGLVQAGGSLRLSCAASGFIFTYYALGWYRQAPGKERELVAAITIGGTTNYADSVKGRFTISRDNAKNTVYLQMNSLKPEDTAVYYCAAYFTIEDWYYNEAVRYYYWGQGTKVTVSS,high polyreactivity
20,QVQLVESGGGLVQAGGSLRLSCAASGFIFVDNAMGWYRQAPRQERELVASITRGGSTDYADSVKGRFTISRDNAKNTVYLQRNSLKPEDTAVYYCAASWHRPAPDEGMDYWGQGTQVTVSS,low polyreactivity
21,QVQLVESGGGLVQAGGSLRLSCAASGFIFVDYVMGWDIQAPGKERELVAAISERGTGTYYADSVKRRFTISRDKAKNTVYLQMNSLKPEDTAVYYCATLGTGWWNCAYYYWGQGTQVTVSS,low polyreactivity
